Experimental data from article PMC3706957, “Ion Mobility Spectrometry-Mass Spectrometry of Intrinsically Unfolded Proteins: Trying to Put Order into Disorder” (Current Analytical Chemistry, 2013).
Bridge positions count the residues as written; N and C are the ends. Square brackets hold non-standard residues; d marks the D form. Ends that are not written are not given here. Gla = N[C@@H](CC(C(=O)O)C(=O)O)C(=O)O

Experiments:
[1] = target: osteocalcin_(17-49) proteolysis fragment (bovine); assay: native MS; ESI-IMS-MS of the limited proteolysis mixture of full length calcium-bound holo-osteocalcin at neutral pH (enzyme:substrate 1:300, ammonium acetate); dimer seen as 6+ ions in the drift time distribution of the 3+ ions
[2] = target: the molecule itself; assay: native MS; ESI-IMS-MS (nanoESI, travelling wave ion mobility), pH 7, 20 mM ammonium acetate (methods) or 1:1 5 mM ammonium acetate: ammonium formate; protein alone and with Ca^2+, Cu^+ or Zn^2+ salt at protein:salt 1:10; dimer told apart from monomer by drift time and isotope pattern; dimer peak increased significantly with metal ions

stoichiometry N [1] | Molecule | stoichiometry N [2]
2 | osteocalcin_(17-49) proteolysis fragment (domain or fragment) | 
 | YLDHWLGAPAPYPDPL[Gla]PKR[Gla]VC[Gla]LNPDCDELADHIGFQEAYRRFYGPV (natural protein, UniProt P02820 52-100, looked up, disulfide 23-29, also called apo-osteocalcin; apo-OST; source: purified from bovine bone tissue (EDTA extraction, size exclusion and ion exchange chromatography)) [bovine osteocalcin] | 2
